For test [1], the target named is cynomolgus monkey PCSK9 (cynomolgus monkey). The test can be described thus: BIAcore solution equilibrium, column To Cyno PCSK9. On the technique in general: SPR reads the build-up and loss of mass on a sensor chip optically.
Test [2] has the same target. In words: KinExA solution equilibrium. (In general: A kinetic exclusion assay measures how much of one partner remains free in solution.)
Test [3] shares this target. The test can be described thus: BIAcore, antibody immobilised, pH 7.4.
Test [4] has the same target. In words: BIAcore solution equilibrium.
Test [5] has the same target. In words: BIAcore solution equilibrium, % free cPCSK9 against [21B12]; third of four curves; cPCSK9 concentration not given.
The target is the same in test [6]. In words: BIAcore solution equilibrium, % free cPCSK9 against [21B12]; second of four curves; cPCSK9 concentration not given.
Test [7] has the same target. In words: BIAcore solution equilibrium, % free cPCSK9 against [21B12]; leftmost of four curves; cPCSK9 concentration not given.
Test [8] has the same target. In words: BIAcore solution equilibrium, % free cPCSK9 against [21B12]; rightmost of four curves; cPCSK9 concentration not given.

The term Kd denotes the concentration at which binding is half-saturated.

B1: 23B5 (antibody, V domains shown)
VH: EVQLLESGGGLVQPGGSLRLSCAASGFTFSSYAMNWVRQAPGKGLEWVSTISGSGDNTYYADSVKGRFTISRDNSKNTLYLQMNSLRAEDTAVYYCAKKFVLMVYAMLDYWGQGTLVTVSS
VL: DILMTQSPSSLSASVGDRVTITCRASQSISSYLNWYQQKPGKAPKVLIYAASSLQSGVPSRFSGSGSGTDFTLTINSLQPEDFATYYCQQSYSSPITFGQGTRLEIK
Turning to B1, the Kd in test [1] came out at 0.12 nM.

B2: 16F12, anti-PCSK9 huIgG4 (antibody, V domains shown)
VH: QVHLVESGGGVVQPGRSLRLSCAASGFTFNSFGMHWVRQAPGKGLEWVALIWSDGSDEYYADSVKGRFTISRDNSKNTLYLQMNSLRAEDTAVYYCARAIAALYYYYGMDVWGQGTTVTVSS
VL: QSVLTQPPSVSAAPGQKVTISCSGSSSNIGNNFVSWYQQLPGTAPKLLIYDYNKRPSGIPDRFSGSKSGTSATLGITGLQTGDEADYYCGTWDSSLSAYVFGTGTRVTVLQ
For the molecule B2, the Kd in test [2] turned out to be 0.016 nM; in test [3], 0.87 nM.

B3: 21B12, anti-PCSK9 huIgG4 (antibody, V domains shown)
VH: QVQLVQSGAEVKKPGASVKVSCKASGYTLTSYGISWVRQAPGQGLEWMGWVSFYNGNTNYAQKLQGRGTMTTDPSTSTAYMELRSLRSDDTAVYYCARGYGMDVWGQGTTVTVSS
VL: QSALTQPASVSGSPGQSITISCTGTSSDVGGYNSVSWYQQHPGKAPKLMIYEVSNRPSGVSNRFSGSKSGNTASLTISGLQAEDEADYYCNSYTSTSMVFGGGTKLTVLQ
For the molecule B3, the Kd came to 0.011 nM in test [4] and 0.36 nM in test [3]. In addition, the IC50 (read off the curve) in test [5] turned out to be 0.09 nM; in test [6] it was 0.03 nM; in test [7], 0.02 nM; in test [8] it was 0.2 nM.

The values above are taken from patent US20130072665A1.
